Reference: the supplement of paper PMC10567573

B1: KLHDC10 (parent)
chain: PSLLELAWEKLLAAFPNLANLSRT

Variants of: B1
Test: protein stability index of a GFP-peptide fusion (GPS, HEK-293T) (PSI 1-6); higher = more stable
Settings: c terminus: a fixed tail appended
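Further: lentivirally expressed fusions sorted by FACS into six bins by GFP to DsRed ratio, PSI derived from sequencing read proportions per bin multiplied by bin number.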

Protein stability index: each site, then its substitutions
L3: W 1.9 | P 1.72 | F 2.22 | M 1.65 | N 1.63 | H 1.75 | E 1.83 | Q 2.29 | A 2.24 | K 2.33 | C 1.85 | V 1.73 | G 1.56
E9: Y 1.59 | F 1.44 | R 2.37 | C 1.5 | W 1.14 | H 1.93 | P 2 | D 2.22 | T 2.39 | V 1.72 | M 1.61 | K 1.97 | S 2.35
E5: P 1.34 | M 2.04 | Q 2.49 | R 2.29 | C 1.97 | Y 2.47 | T 2.31 | V 1.71 | W 1.93 | H 2.39 | K 2.28 | L 2.19 | D 2.88 | N 2.72
S22: Y 1.81 | G 1.9 | V 1.78 | Q 2.38 | H 2.11 | A 2.81 | P 2.21 | E 2.59 | N 2.23 | T 2.3 | D 1.95 | W 2.21 | L 2.4
L11: F 2.29 | N 2.26 | S 2.2 | E 2.55 | W 2.06 | C 1.88 | V 2.5 | K 1.62 | D 2.14 | H 1.92 | Q 2.19
L4: G 2.58 | Y 2.06 | I 2.01 | H 2.88 | S 3.52 | P 1.83 | N 2.83 | M 2.47 | V 2.26 | W 2.53 | R 3.93 | Q 3.05 | E 2.1 | A 3.11 | D 2.07 | K 3.92
S2: C 1.34 | A 2.09 | E 2.03 | Y 2.36 | G 1.72 | R 1.82 | V 1.86 | M 1.61 | W 1.94 | Q 1.79 | K 2.17 | I 1.17 | L 2.19 | N 1.77 | P 2.25
L21: H 2.72 | F 2.54 | A 2.14 | Q 2.05 | P 2.07 | S 2.17 | T 2.6 | R 2.38 | V 2.35 | G 2.22 | Y 2.4 | I 1.76 | C 2.16 | W 2.6 | K 2.38 | M 2.25
L18: E 2.35 | S 2.01 | T 1.96 | W 1.82 | N 2.97 | A 2.15 | D 2.1 | V 1.81
W8: N 2.37 | H 2.54 | V 2.19 | A 1.77 | E 2.97 | P 3.21 | Y 2.04 | C 1.85 | K 2.61 | M 1.95 | F 2.56 | R 2.52 | I 1.87
A7: W 1.84 | L 2.29 | Q 2.29 | V 2.22 | Y 2.08 | F 1.86 | T 1.28 | G 1.96 | M 2.33 | N 2.28 | C 2.23 | D 2.14 | P 1.77 | R 2.35 | K 2.73
T24: G 2.17 | S 2.14 | H 2.56 | P 2.44 | Q 1.56 | W 2.28 | E 2.22 | Y 2.32 | V 2.29 | C 1.6 | R 2.6 | K 2.25 | N 2.23
P16: Y 2.06 | E 1.45 | N 2.03 | V 3.1 | D 2.2 | A 1.84 | T 2.01 | Q 2.12 | H 1.55 | F 1.51 | L 1.78 | G 1.25 | I 1.63 | M 2.62
A19: T 1.77 | S 2 | P 2.29 | R 2.4 | K 1.95 | I 2.32 | G 2.17 | Q 2.37 | C 2.04 | V 2.3 | D 2.46 | F 2 | E 2.31
A13: T 2.2 | P 1.86 | N 2.04 | M 2.51 | W 1.64 | S 2.28 | Q 2.25 | V 1.79 | R 1.8 | H 2.83 | L 1.74 | I 2.46 | C 2.01 | D 2.12
L12: M 1.85 | W 1.71 | E 2.66 | D 3.04 | Y 1.76 | I 2.12 | R 1.88 | C 1.83 | Q 2.23 | A 2.52 | V 2.44 | S 1.9 | K 3.22 | F 2.3 | T 2.37
L6: Y 1.95 | D 2.2 | K 3.43 | E 1.81 | M 2.47 | F 2.01 | C 1.92 | V 2.33 | P 1.86 | N 2.09 | G 1.64 | R 1.72 | A 1.94 | Q 2
N17: A 2.5 | H 2.13 | W 2.94 | S 2.29 | V 2.18 | Q 1.94 | C 1.81 | T 1.8 | E 1.62 | D 2.03 | I 2.01 | M 2.56 | Y 2.44 | K 1.43 | L 2.15 | P 1.97 | R 2.09
R23: H 2.02 | C 1.98 | K 2.16 | L 2.42 | S 1.55 | Q 2.1 | A 1.55 | N 2.17 | V 2.33 | Y 1.67 | W 2.34 | D 1.28
F15: N 2.31 | A 2.23 | K 1.78 | L 2.16 | Y 1.7 | C 1.78 | W 2.4 | I 1.39 | M 2.06 | S 1.92 | Q 2.52 | P 2.49 | G 2.08 | R 2.11 | D 2.3 | T 2.1
N20: Q 2.09 | F 2.17 | W 2.04 | S 2.59 | G 2.12 | L 1.77 | D 1.51 | I 2.24 | A 2.08 | V 2.47 | K 1.49 | H 2.46 | P 1.89 | R 1.89 | T 1.62
P1: F 2.52 | A 2.42 | V 2 | T 1.85 | K 2.79 | H 2.21 | E 3.28 | S 1.85 | Q 2.21 | M 1.94 | I 1.92 | N 2.17 | Y 1.67 | D 2.06 | W 1.8
K10: C 1.63 | R 1.9 | Y 1.75 | E 1.57 | Q 1.95 | S 1.72 | H 2.09 | P 1.64 | A 1.84 | T 1.69 | G 1.93 | N 1.48 | M 2 | W 2.53
A14: D 2.19 | C 2.58 | K 2.1 | V 2.4 | R 1.87 | L 2.75 | Y 3 | S 2.86 | N 2.2 | T 2.2 | I 2.83 | P 2.07 | Q 2.05 | H 2.15 | E 2.11
